The target in the data set is T1, FAM20C (Mus musculus, UniProt Q5MJS3).
T1 construct: His (from vector pcDNA3.1/V5-His B) (C); made in house; host or cells: HEK293T
T1 sequence (Q5MJS3 88-579): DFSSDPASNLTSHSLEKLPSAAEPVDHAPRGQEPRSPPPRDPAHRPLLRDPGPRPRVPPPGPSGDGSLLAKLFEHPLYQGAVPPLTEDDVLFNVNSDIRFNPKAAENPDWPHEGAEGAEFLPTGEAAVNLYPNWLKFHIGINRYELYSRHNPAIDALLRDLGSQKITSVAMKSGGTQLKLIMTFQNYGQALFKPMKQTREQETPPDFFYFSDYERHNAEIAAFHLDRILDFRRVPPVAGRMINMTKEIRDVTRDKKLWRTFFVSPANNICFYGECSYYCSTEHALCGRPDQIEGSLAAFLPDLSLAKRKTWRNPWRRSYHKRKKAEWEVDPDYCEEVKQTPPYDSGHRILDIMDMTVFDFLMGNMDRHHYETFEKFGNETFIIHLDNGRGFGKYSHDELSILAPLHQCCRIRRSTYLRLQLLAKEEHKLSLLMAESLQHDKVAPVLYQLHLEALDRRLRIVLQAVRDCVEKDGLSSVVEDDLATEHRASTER
The data set can be described thus: FAM20C in vitro kinase assay with dephosphorylated alpha-Casein as substrate. The class given is biochemical. Conditions: Casein as model substrate; 5 minute assays. As to the method:
For FAM20C:V5 purification, pcDNA-FAM20C:V5 was transfected to HEK293T cells, and FAM20C:V5 was purified from conditioned media using anti-V5 agarose beads (Sigma). Condition media were incubated with anti-V5 affinity gel (Sigma) overnight at 4° C. Agarose beads were collected by centrifugation, and washed 5 times with TBS. Proteins were eluted using V5 peptides in TBS (Sigma, final concentration: 100 μg/ml). For purification of OPN:FLAG, BSP:FLAG, DMP1:FLAG, DSPP:FLAG and MEPE:FLAG, condition media were incubated with anti-FLAG M2 affinity gel (Sigma) overnight at 4° C. Agarose beads were collected by centrifugation, and washed 5 times with TBS. Purified quantification was performed on gels stained by SYPRO Ruby Protein Gel Stain (Invitrogen), using BSA as a standard.
FAM20C kinase assays were performed in 10 μl reactions, with 500 μM ATP, including 3 μCi (0.05 μM) of [gamma-^32P]ATP (6000 Ci/mmol, PerkinElmer), 50 mM Tris (pH 7.0), 10 mM MnCl2, 0.1% BSA, purified FAM20C:V5 (5 ng, […]), and dephosphorylated alpha-Casein (0.1 μg, Sigma). […] Radioactivity within the gels was detected using a Molecular Dynamics Phosphor Imager. For quantitation of gamma-^32P incorporation, bands were cut out of the gels using the Phosphor Imager pictures as a reference, and then counted by liquid scintillation using a Beckman Coulter LC6500. […]

B1: FAM20C: affinity purified V5-tagged mouse FAM20C, Golgi-localized protein kinase (protein)
chain: DFSSDPASNLTSHSLEKLPSAAEPVDHAPRGQEPRSPPPRDPAHRPLLRDPGPRPRVPPPGPSGDGSLLAKLFEHPLYQGAVPPLTEDDVLFNVNSDIRFNPKAAENPDWPHEGAEGAEFLPTGEAAVNLYPNWLKFHIGINRYELYSRHNPAIDALLRDLGSQKITSVAMKSGGTQLKLIMTFQNYGQALFKPMKQTREQETPPDFFYFSDYERHNAEIAAFHLDRILDFRRVPPVAGRMINMTKEIRDVTRDKKLWRTFFVSPANNICFYGECSYYCSTEHALCGRPDQIEGSLAAFLPDLSLAKRKTWRNPWRRSYHKRKKAEWEVDPDYCEEVKQTPPYDSGHRILDIMDMTVFDFLMGNMDRHHYETFEKFGNETFIIHLDNGRGFGKYSHDELSILAPLHQCCRIRRSTYLRLQLLAKEEHKLSLLMAESLQHDKVAPVLYQLHLEALDRRLRIVLQAVRDCVEKDGLSSVVEDDLATEHRASTER
modifications: left off: small tags and cut ends
As for B1, the V. worked out at 0.7 μM ATP/min/mg FAM20C and the “turnover number (kcat)” value stood at 52 per minute.

The record behind these values is patent publication US20120184713A1, “Compositions and Methods for Modulation of Bone Density and Biomineralization” (priority 2011, published 2012).
